Experiments:
His-tagged MVP = biological target: T1, His-tagged MVP (UniProt Q14764 1-893); test: pull-down; GST pull-down with GST-tagged PTPN18 and His-tagged MVP; called a direct interaction, in vitro; details: both partners purified
T1 construct: MVP, His-tagged, for GST pull-down

His-tagged importin β2 = biological target: T2, His-tagged importin β2 (UniProt Q92973 1-898); test: pull-down; GST pull-down of GST-tagged PTPN18 and its NLS mutants with His-tagged importin β2; purified proteins, in vitro; details: both partners purified
T2 construct: source: purified proteins
T2 sequence (looked up): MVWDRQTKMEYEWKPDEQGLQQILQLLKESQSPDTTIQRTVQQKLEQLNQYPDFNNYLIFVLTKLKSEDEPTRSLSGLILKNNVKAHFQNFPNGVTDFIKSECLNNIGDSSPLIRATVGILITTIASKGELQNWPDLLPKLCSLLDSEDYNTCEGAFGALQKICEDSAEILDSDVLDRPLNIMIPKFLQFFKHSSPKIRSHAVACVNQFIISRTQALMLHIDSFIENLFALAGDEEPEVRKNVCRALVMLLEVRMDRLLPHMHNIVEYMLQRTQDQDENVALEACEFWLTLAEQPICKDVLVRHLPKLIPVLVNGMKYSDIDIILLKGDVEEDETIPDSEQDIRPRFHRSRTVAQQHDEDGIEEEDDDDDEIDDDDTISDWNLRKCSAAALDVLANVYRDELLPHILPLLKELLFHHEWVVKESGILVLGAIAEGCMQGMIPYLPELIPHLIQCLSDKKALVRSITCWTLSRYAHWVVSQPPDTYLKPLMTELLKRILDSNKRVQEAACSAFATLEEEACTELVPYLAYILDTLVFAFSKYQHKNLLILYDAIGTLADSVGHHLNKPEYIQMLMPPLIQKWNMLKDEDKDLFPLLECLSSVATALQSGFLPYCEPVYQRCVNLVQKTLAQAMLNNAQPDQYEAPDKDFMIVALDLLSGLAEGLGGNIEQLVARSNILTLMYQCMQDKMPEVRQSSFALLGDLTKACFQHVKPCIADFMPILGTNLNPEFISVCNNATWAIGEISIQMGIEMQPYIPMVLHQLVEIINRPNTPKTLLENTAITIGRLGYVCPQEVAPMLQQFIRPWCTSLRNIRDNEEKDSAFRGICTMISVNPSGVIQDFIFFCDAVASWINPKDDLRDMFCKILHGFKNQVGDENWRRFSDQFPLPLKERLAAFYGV

T1 sequence (Q14764 whole entry): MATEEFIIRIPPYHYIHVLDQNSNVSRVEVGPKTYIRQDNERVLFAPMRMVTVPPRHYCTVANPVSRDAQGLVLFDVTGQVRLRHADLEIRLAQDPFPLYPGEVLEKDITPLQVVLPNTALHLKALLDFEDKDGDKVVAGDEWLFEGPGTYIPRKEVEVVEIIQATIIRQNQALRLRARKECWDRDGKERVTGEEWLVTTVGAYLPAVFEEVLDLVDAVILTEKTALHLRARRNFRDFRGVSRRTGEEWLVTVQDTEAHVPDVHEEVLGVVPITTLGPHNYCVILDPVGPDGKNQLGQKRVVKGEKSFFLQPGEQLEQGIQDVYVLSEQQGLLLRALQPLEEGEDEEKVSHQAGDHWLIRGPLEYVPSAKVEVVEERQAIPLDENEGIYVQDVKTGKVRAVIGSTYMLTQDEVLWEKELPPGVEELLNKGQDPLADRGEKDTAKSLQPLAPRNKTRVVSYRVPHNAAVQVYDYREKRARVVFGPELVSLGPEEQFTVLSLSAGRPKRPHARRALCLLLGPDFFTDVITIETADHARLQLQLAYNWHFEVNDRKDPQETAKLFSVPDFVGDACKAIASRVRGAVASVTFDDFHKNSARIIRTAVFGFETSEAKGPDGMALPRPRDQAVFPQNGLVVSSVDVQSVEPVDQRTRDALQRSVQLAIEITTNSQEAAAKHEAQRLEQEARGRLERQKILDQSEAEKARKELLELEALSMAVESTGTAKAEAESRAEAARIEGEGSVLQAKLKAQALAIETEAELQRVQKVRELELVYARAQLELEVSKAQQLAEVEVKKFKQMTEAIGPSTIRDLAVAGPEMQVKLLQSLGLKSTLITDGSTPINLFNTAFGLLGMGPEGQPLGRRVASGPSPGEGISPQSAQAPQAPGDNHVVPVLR

- binding result (His-tagged MVP): binds
- binding result (His-tagged importin β2): binds
B1: GST-tagged PTPN18 (natural protein, UniProt Q99952 1-460, looked up)
chain: MSRSLDSARSFLERLEARGGREGAVLAGEFSDIQACSAAWKADGVCSTVAGSRPENVRKNRYKDVLPYDQTRVILSLLQEEGHSDYINGNFIRGVDGSLAYIATQGPLPHTLLDFWRLVWEFGVKVILMACREIENGRKRCERYWAQEQEPLQTGLFCITLIKEKWLNEDIMLRTLKVTFQKESRSVYQLQYMSWPDRGVPSSPDHMLAMVEEARRLQGSGPEPLCVHCSAGCGRTGVLCTVDYVRQLLLTQMIPPDFSLFDVVLKMRKQRPAAVQTEEQYRFLYHTVAQMFCSTLQNASPHYQNIKENCAPLYDDALFLRTPQALLAIPRPPGGVLRSISVPGSPGHAMADTYAVVQKRGAPAGAGSGTQTGTGTGTGARSAEEAPLYSKVTPRAQRPGAHAEDARGTLPGRVPADQSPAGSGAYEDVAGGAQTGGLGFNLRIGRPKGPRDPPAEWTRV
notes: PTPN18 wild type, GST-tagged, for GST pull-down; also called PTPN18 WT; source: purified proteins

Reference: publication PMC9388692, “Nuclear import of PTPN18 inhibits breast cancer metastasis mediated by MVP and importin β2” (Cell Death & Disease, 2022)
